Experimental data published in US20170313764A1 (ACADEMISCH MEDISCH CENTRUM, published 2017).
Like-named read-outs stand apart in the source and are kept apart here.

How the values were obtained:
[1] = biological target: E1E2 of HCV isolate H77 with single mutation W420A (Hepatitis C virus genotype 1a, strain …, UniProt P27958 192-383; P27958 384-746); experiment: ELISA, GNA-captured E1E2 lysate; EC50 wild type / EC50 mutant
[2] = biological target: T1, E1E2 of HCV isolate H77 with single mutation G418A (Hepatitis C virus genotype 1a, strain …, UniProt P27958 192-383; P27958 384-746); experiment: as above
[3] = biological target: E1E2 of HCV isolate H77 with single mutation L413A (Hepatitis C virus genotype 1a, strain …, UniProt P27958 192-383; P27958 384-746); experiment: as above
[4] = biological target: T2, soluble E2-his6-sortase tag from HCV isolate H77 (genotype 1a) (Hepatitis C virus genotype 1a, strain …, UniProt P27958 384-717); experiment: SPR (IBIS MX96), antibody spotted on chip, soluble E2-his as analyte
T2 construct: also called E2-his6-ST; E2 genotype 1a

[5] = biological target: T3, soluble E2-his6-sortase tag from HCV isolate AMS.2b.20876551.kloon21 (genotype 2b) (Hepatitis C virus genotype 2b); experiment: as above
T3 chain: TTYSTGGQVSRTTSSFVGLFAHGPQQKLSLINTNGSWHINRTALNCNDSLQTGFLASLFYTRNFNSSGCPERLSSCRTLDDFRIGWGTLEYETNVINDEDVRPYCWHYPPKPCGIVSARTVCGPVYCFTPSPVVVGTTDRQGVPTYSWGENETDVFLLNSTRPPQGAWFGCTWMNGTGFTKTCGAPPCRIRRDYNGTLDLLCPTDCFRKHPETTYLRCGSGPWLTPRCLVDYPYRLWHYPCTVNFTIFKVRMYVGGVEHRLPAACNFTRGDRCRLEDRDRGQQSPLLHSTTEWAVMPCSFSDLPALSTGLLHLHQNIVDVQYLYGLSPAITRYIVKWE

[6] = biological target: E1E2 of HCV isolate H77 with single mutation D698A (Hepatitis C virus genotype 1a, strain …, UniProt P27958 192-383; P27958 384-746); experiment: ELISA, GNA-captured E1E2 lysate; EC50 wild type / EC50 mutant
[7] = biological target: E1E2 of HCV isolate H77 with single mutation Y527A (Hepatitis C virus genotype 1a, strain …, UniProt P27958 192-383; P27958 384-746); experiment: as above
[8] = biological target: E1E2 of HCV isolate H77 with single mutation W616A (Hepatitis C virus genotype 1a, strain …, UniProt P27958 192-383; P27958 384-746); experiment: as above
[9] = biological target: E1E2 of HCV isolate H77 with single mutation F442A (Hepatitis C virus genotype 1a, strain …, UniProt P27958 192-383; P27958 384-746); experiment: as above
[10] = biological target: E1E2 of HCV isolate H77 with single mutation N448A (Hepatitis C virus genotype 1a, strain …, UniProt P27958 192-383; P27958 384-746); experiment: as above
[11] = biological target: E1E2 of HCV isolate H77 with single mutation P664A (Hepatitis C virus genotype 1a, strain …, UniProt P27958 192-383; P27958 384-746); experiment: as above
[12] = biological target: T1, E1E2 of HCV isolate H77 with single …; experiment: as above; remark: listed apart in the source
[13] = biological target: E1E2 of HCV isolate H77 with single mutation P612A (Hepatitis C virus genotype 1a, strain …, UniProt P27958 192-383; P27958 384-746); experiment: as above
[14] = biological target: E1E2 of HCV isolate H77 with single mutation T435A (Hepatitis C virus genotype 1a, strain …, UniProt P27958 192-383; P27958 384-746); experiment: as above
[15] = biological target: E1E2 of HCV isolate H77 with single mutation W529A (Hepatitis C virus genotype 1a, strain …, UniProt P27958 192-383; P27958 384-746); experiment: as above
[16] = biological target: E1E2 of HCV isolate H77 with single mutation T534A (Hepatitis C virus genotype 1a, strain …, UniProt P27958 192-383; P27958 384-746); experiment: as above
[17] = biological target: E1E2 of HCV isolate H77 with single mutation N423A (Hepatitis C virus genotype 1a, strain …, UniProt P27958 192-383; P27958 384-746); experiment: as above
[18] = biological target: E1E2 of HCV isolate H77 with single mutation S424A (Hepatitis C virus genotype 1a, strain …, UniProt P27958 192-383; P27958 384-746); experiment: as above
[19] = biological target: E1E2 of HCV isolate H77 with single mutation P676A (Hepatitis C virus genotype 1a, strain …, UniProt P27958 192-383; P27958 384-746); experiment: as above

Binder | relative binding, mutant vs wild type [1] | relative binding, mutant vs wild type [2] | relative binding, mutant vs wild type [3] | Kd [4] | koff [4] | Kd [5] | koff [5] | relative binding, mutant vs wild type [6] | relative binding, mutant vs wild type [7] | relative binding, mutant vs wild type [8] | relative binding, mutant vs wild type [9] | relative binding, mutant vs wild type [10] | relative binding, mutant vs wild type [11] | relative binding, mutant vs wild type [12] | relative binding, mutant vs wild type [13] | relative binding, mutant vs wild type [14] | relative binding, mutant vs wild type [15] | relative binding, mutant vs wild type [16] | relative binding, mutant vs wild type [17] | relative binding, mutant vs wild type [18] | also measured
AT12-010 (antibody, V domains shown) VH: QLQLVQSGAEVKKPGSSVKVSCKASGGTFTSYAINWVRQVPGQGLEWMGEISPVFGTTHYAQKFQGRLKITADESADTAYMELSSLRSDDTAVYYCGRDRAPRLCSGGRCHSPPDHWGQGTLVTVSS VL: DIQMTQSPSSVSASVGDRVTITCRASQGFGNWLAWYQQKPGRAPKLLIFGASTLQNGVPSRFSGSASGTDFTLTITSLQPEDFATYYCLQTNTFPYTFGQGTKVEIKR | < 10% | 203% | 217% | 39.3 nM | 0.00142 s⁻¹ | 22.8 nM | 0.00098 s⁻¹ |  |  |  |  |  |  |  |  |  |  |  |  |  | 
AT15-009 (antibody, V domains shown) VH: QVLLVQSGAEVKKPGSSVKVSCKASGGTFSTYAISWLRQAPGQGPEWMGGIVPMFGITNYAQHFQGRITITADKSTSTAYMELSSLGSEDTAVYFCARDLRSGGTFFSRGFDLWGPGTKVTVSS VL: EIVLTQSPGTLSLSPGERATLSCRASQSVSSSFLTWYQQKPGQAPRLLIFDASTRATGVPDRFSGSGSGTDFTLTISRLEPEDFGVYYCQQFDSSPTFGGGTKVEIK |  |  |  |  |  |  |  | 116% | 84% | 29% | 27% | 113% | 101% | 112% | 94% | 101% | 82% | 93% | 111% | 106% | relative binding, mutant vs wild type [19]: 102%
AT12-007 (antibody, V domains shown) VH: QVQLEQSGAEVKKPGASVKVSCKVSGYTLTELSMHWVRQAPGKGLEWMGSFDPADGERLYAQKFQGRVIMSEDTSTDTAYMELSSLRSEDAAVYYCATAPRMTMFGVIMALDSWGQGTLVTVSS VL: DIQMTQSPSTLSASLGDRVTITCRASQNINKYLAWYQQKPGKAPKLLIYKASNLQSGVPSRFSGSGSGTDFILTISSLQPDDFATYYCQQYTTYSAWTFGQGTNVDIKR | 87% | 130% | 187% | 44 nM | 0.00184 s⁻¹ | 3.8 nM | 0.00019 s⁻¹ |  |  |  |  |  |  |  |  |  |  |  |  |  | 
AT15-012 (antibody, V domains shown, also called AT15-12) VH: QVQLVQSGAEVKKPGSSVKVSCKASGGNFNIFPITWVRQAPGQGLEWMGEIIPMLGTPEYAQKFQGRVTITADKSTGTAFMELSSLRSEDTAVYYCARTETTLPGTLFFVYYFHFWGQGTPVTVSS VL: EIVMTQSPVTLSVSPGERAILSCRASQSVSSSLAWYQQKPGQAPRLLIYGASTRATGVPARFSGSGSGTEFTLTISSVQSEDYAIYFCQQYNDRPPWTFGQGTKVEIK |  |  |  |  |  |  |  | 117% | 76% | 71% | 60% | 129% | 83% | 124% | 81% | 99% | 77% | 95% | 132% | 67% | relative binding, mutant vs wild type [19]: 92%
